# Values joined by “and” are separate entries in the source; they are usually repeats but may differ in a detail not shown here. Equal entries are not always repeated.
# What was measured:
# [1] = target: His-tagged RNase J K649A (pET28a+) (Helicobacter pylori) (UniProt P56185); experiment: AUC; sedimentation velocity of His-tagged purified proteins, alone or mixed; 25 mM Tris-HCl pH 8, 300 mM NaCl, 0.5 mM TCEP; 20 °C; 230 nm; c(s) analysis with Sedfit
# [2] = target: His-tagged RNase J K649Q (pET28a+) (Helicobacter pylori) (UniProt P56185); experiment: as above
# [3] = target: His-tagged RNase J K649R (pET28a+) (Helicobacter pylori) (UniProt P56185); experiment: as above
# [4] = target: His-tagged RNase J wild type (pET28a+) (Helicobacter pylori) (UniProt P56185); experiment: as above
# [5] = target: His-tagged RhpA (pET28a+) (Helicobacter pylori) (UniProt O25029); experiment: as above
# [6] = target: His-tagged RNase J K649A (pET28a+) (Helicobacter pylori) (UniProt P56185)
# [7] = target: RhpA with C-terminal Strep-tag, from pExp-MBP (Helicobacter pylori) (UniProt O25029); experiment: mass photometry; Refeyn TwoMP; 20 mM sodium phosphate pH 7.2, 300 mM NaCl; final concentration of 50 nM
# [8] = target: full-length RNase J (H. pylori strain B128) with C-terminal 8xHis-tag, from pExp-xMBP-CHis (Helicobacter pylori strain B128) (UniProt P56185); experiment: cryo-EM structure; mixture of RNase J (1 µM) and RhpA (2 µM) in 20 mM sodium phosphate pH 7.2, 500 mM NaCl, 0.5 mM TCEP; Quantifoil R1.2/1.3 grids, 200 kV Talos Arctica
# [9] = target: full-length RNase J (H. pylori strain B128) with C-terminal 8xHis-tag, from pExp-xMBP-CHis (Helicobacter pylori strain B128) (UniProt P56185); experiment: mass photometry; Refeyn TwoMP; 20 mM sodium phosphate pH 7.2, 300 mM NaCl; final concentration of 50 nM
substance,measurement,setting,value
His-tagged RNase J K649A (pET28a+) (from UniProt P56185 1-689) (enzyme),stoichiometry N,[1],4
His-tagged RNase J K649Q (pET28a+) (from UniProt P56185 1-689) (enzyme),stoichiometry N,[2],4 and 2
His-tagged RNase J K649R (pET28a+) (from UniProt P56185 1-689) (enzyme),stoichiometry N,[3],4 and 2
His-tagged RNase J wild type (pET28a+) (from UniProt P56185 1-689) (enzyme),stoichiometry N,[4],2 and 4
His-tagged RhpA (pET28a+) (from UniProt O25029 1-492) (enzyme),stoichiometry N,[5],2
same,"half-life of the structured RNA substrate with the complex between RhpA and the RNase J K649A variant (value of the text, differs from the table)",[6],6.7 min
"RhpA with C-terminal Strep-tag, from pExp-MBP (from UniProt O25029 1-492) (enzyme)",stoichiometry N,[7],2
"full-length RNase J (H. pylori strain B128) with C-terminal 8xHis-tag, from pExp-xMBP-CHis (from UniProt P56185 1-689) (enzyme)",stoichiometry N,[8],4
same,stoichiometry N,[9],4

# From article PMC10700544
